Source: patent publication US20230227534A1, “METHOD FOR GENERATING VARIANTS OF A PROTEIN” (ECOLE POLYTECHNIQUE FEDERALE DE LAUSANNE (EPFL), priority 2019, published 2023)

Tested on: transducin
Test: transducin activation by designed opsin mutants (constitutive and light-induced activity)
Format: biochemical
Details: data not shown

Row | Molecule | rate of transducin activation (compared to M257Y alone) | constitutive activity compared to WT opsin | constitutive activity as share of the light-induced maximal activity
1 | M257Y.I305A: opsin (rhodopsin) double mutant, M257Y on TMH6 and I305A on TMH7 (protein, UniProt P02699 1-348, looked up, variant M257Y I305A) Rhodopsin: MNGTEGPNFYVPFSNKTGVVRSPFEAPQYYLAEPWQFSMLAAYMFLLIMLGFPINFLTLYVTVQHKKLRTPLNYILLNLAVADLFMVFGGFTTTLYTSLHGYFVFGPTGCNLEGFFATLGGEIALWSLVVLAIERYVVVCKPMSNFRFGENHAIMGVAFTWVMALACAAPPLVGWSRYIPEGMQCSCGIDYYTPHEETNNESFVIYMFVVHFIIPLIVIFFCYGQLVFTVKEAAAQQQESATTQKAEKEVTRMVIIYVIAFLICWLPYAGVAFYIFTHQGSDFGPIFMTIPAFFAKTSAVYNPVAYIMMNKQFRNCMVTTLCCGKNPLGDDEASTTVSKTETSQVAPA | higher | much larger | 
2 | K231E.E232I.T251R: opsin (rhodopsin) ICL3 triple mutant (protein, UniProt P02699 1-348, looked up, variant K231E E232I T251R) Rhodopsin: MNGTEGPNFYVPFSNKTGVVRSPFEAPQYYLAEPWQFSMLAAYMFLLIMLGFPINFLTLYVTVQHKKLRTPLNYILLNLAVADLFMVFGGFTTTLYTSLHGYFVFGPTGCNLEGFFATLGGEIALWSLVVLAIERYVVVCKPMSNFRFGENHAIMGVAFTWVMALACAAPPLVGWSRYIPEGMQCSCGIDYYTPHEETNNESFVIYMFVVHFIIPLIVIFFCYGQLVFTVEIAAAQQQESATTQKAEKEVRRMVIIMVIAFLICWLPYAGVAFYIFTHQGSDFGPIFMTIPAFFAKTSAVYNPVIYIMMNKQFRNCMVTTLCCGKNPLGDDEASTTVSKTETSQVAPA |  | dramatically increased | higher than 40%
3 | M257Y: opsin (rhodopsin) mutant, M257Y on TMH6 (protein, UniProt P02699 1-348, looked up, variant M257Y) Rhodopsin: MNGTEGPNFYVPFSNKTGVVRSPFEAPQYYLAEPWQFSMLAAYMFLLIMLGFPINFLTLYVTVQHKKLRTPLNYILLNLAVADLFMVFGGFTTTLYTSLHGYFVFGPTGCNLEGFFATLGGEIALWSLVVLAIERYVVVCKPMSNFRFGENHAIMGVAFTWVMALACAAPPLVGWSRYIPEGMQCSCGIDYYTPHEETNNESFVIYMFVVHFIIPLIVIFFCYGQLVFTVKEAAAQQQESATTQKAEKEVTRMVIIYVIAFLICWLPYAGVAFYIFTHQGSDFGPIFMTIPAFFAKTSAVYNPVIYIMMNKQFRNCMVTTLCCGKNPLGDDEASTTVSKTETSQVAPA |  | much larger | 
